# Results as given in patent US20170015749A1 (NATIONAL RESEARCH COUNCIL OF CANADA, published 2017).
# Where a chain is given by its changes, count along the chain named.
# B1: IGF1R-3_H4 (VHH)
# VHH: QVQLVESGGGLVQPGGSLRLSCAASEYPSNFYAMSWFRQAPGKEREFVAGVSRDGLTTLYADSVKGRFTMSRDNSKNTVYLQMNSLRAEDTAVYYCAIVITGVWNKVDVNSRSYHYWGQGTLVTVSS
# notes: Humanized variant of IGF1R-3, monomeric VHH; not shown: C-terminal tag from expression vector pSJF2H (protein purified by IMAC)
# B2: IGF1R-3 VHH (VHH)
# VHH: B1 VHH with Q3K, V5E, P14A, A23V, S75A, Y80D, L86V, R87K, L122Q
# notes: Llama VHH expressed in E. coli TG1 from pSJF2H and tested as monomer; also called anti-IGF1R VHH IGF1R-3; IGF1R VHH; not shown: C-terminal tag from expression vector pSJF2H (protein purified by IMAC)
# B3: IGF1R-3_H2 (VHH)
# VHH: B1 VHH with F37V, E44G, R45L, F47W
# notes: as for B1
# B4: IGF1R-3_H5 (VHH)
# VHH: B1 VHH with Q1E, A49S, M70I, V79L
# notes: as for B1
# B5: IGF1R-3_H1 (VHH)
# VHH: B1 VHH with Q1E, F37V, E44G, R45L, F47W, A49S, M70I, V79L
# notes: as for B1
# Biological target: T1, recombinant extracellular portion of human IGF1R (IGF1R^933-His) (human, UniProt P08069 31-933)
# T1 construct: It contains a furin cleavage site (RKRR) between the alpha and beta subunits, so the secreted protein may be two disulphide-linked chains; Immobilized by amine coupling on a CM5 chip; also called recombinant human IGF1R; human IGF1R fragment; not shown: His tag from vector pCDN4/myc-His
# Experiment: SPR, Biacore 3000, human IGF1R immobilized on CM5, VHH as analyte, 1:1 model
# Procedure: (§1) Approximately 3000 Resonance Units (RU) of recombinant human IGF1R were immobilized on a Sensor chip CM5. Immobilization was carried out at a concentration of 10 μg/ml in 10 mM acetate at pH4.0 using the amine coupling kit supplied by the manufacturer. The remaining binding sites were blocked with 1 M ethanolamine pH 8.5. An ethanolamine blocked surface was used as a reference surface. For the binding studies, analyses were carried out at 25° C. in 10 mM HEPES, pH7.4 containing 150 mM NaCl, 3 mM EDTA and 0.005% surfactant P20 (Polyoxyethylenesorbitan; GE Healthcare). […] Surfaces were regenerated with 10 mM glycine pH 2.0 with a contact time of 24 seconds. Data were analyzed with BIAevaluation 4.1 software (GE Healthcare).
Kd [nM],koff [s⁻¹],Binder
1.4,0.00055,B1
1.3,0.00013,B2
6.6,0.00072,B3
7.5,0.0025,B4
47,0.0023,B5

# Biological target: T2, recombinant human Insulin Receptor (R&D systems) (human, UniProt P06213-2 28-944, limits assumed)
# T2 construct: extracellular domain; Immobilized on a CM5 chip at about 4000 RU; also called IR; recombinant extracellular portion of the human Insulin Receptor
# T2 sequence (P06213 other isoform, or with tags, fused parts or gaps limits assumed): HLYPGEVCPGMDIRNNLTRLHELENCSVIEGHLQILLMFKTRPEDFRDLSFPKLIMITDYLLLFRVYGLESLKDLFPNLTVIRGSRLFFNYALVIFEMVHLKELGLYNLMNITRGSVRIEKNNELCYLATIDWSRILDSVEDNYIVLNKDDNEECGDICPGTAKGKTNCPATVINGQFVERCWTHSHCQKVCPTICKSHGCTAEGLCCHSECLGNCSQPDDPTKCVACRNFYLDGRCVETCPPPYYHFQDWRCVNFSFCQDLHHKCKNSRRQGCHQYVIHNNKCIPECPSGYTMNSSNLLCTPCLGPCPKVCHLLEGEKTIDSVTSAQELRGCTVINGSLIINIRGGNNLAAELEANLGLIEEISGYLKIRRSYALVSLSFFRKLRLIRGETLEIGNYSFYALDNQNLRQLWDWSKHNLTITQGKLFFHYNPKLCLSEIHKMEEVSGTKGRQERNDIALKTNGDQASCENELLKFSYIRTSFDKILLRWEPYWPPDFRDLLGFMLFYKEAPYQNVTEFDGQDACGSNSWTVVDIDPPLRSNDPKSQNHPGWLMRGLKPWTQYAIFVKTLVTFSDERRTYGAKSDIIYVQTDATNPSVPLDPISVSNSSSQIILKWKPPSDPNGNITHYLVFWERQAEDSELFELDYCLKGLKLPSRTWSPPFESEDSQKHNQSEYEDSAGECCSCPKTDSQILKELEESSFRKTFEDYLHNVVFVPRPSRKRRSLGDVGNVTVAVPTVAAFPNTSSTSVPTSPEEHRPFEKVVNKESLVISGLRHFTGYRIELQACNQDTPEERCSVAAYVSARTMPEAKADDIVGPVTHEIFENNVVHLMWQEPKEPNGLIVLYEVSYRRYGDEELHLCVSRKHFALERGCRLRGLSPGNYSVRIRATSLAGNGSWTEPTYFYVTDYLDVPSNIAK
# Experiment: SPR, IGF1R-3 VHH (1 nM per text) injected over immobilised human Insulin Receptor surface (curve without asterisk)
# Procedure: as §1
row,binding result,Binder
1,no binding (tested: 1 nM),B2
